Measurements as given in article PMC12102759 (2025).

B1: CBL peptide 538-553 (E3 ubiquitin-protein ligase CBL), 16-mer library wild type / YES SH3 (YES1 SH3 domain, residues 90-152) (parent complex)
chain 1: TLRDLPPPPPPDRPYS
chain 2: not shown
B2: SH3BP2 peptide 408-423 (SH3 domain-binding protein 2), 16-mer library wild type / TNKS ANK (TNKS 12 ANK repeats, residues 174-649) (parent complex)
chain 1: PQLPHLQRSPPDGQSF
chain 2: TGVPAVSGALRELLEACRNGDVSRVKRLVDAANVNAKDMAGRKSSPLHFAAGFGRKDVVEHLLQMGANVHARDDGGLIPLHNACSFGHAEVVSLLLCQGADPNARDNWNYTPLHEAAIKGKIDVCIVLLQHGADPNIRNTDGKSALDLADPSAKAVLTGEYKKDELLEAARSGNEEKLMALLTPLNVNCHASDGRKSTPLHLAAGYNRVRIVQLLLQHGADVHAKDKGGLVPLHNACSYGHYEVTELLLKHGACVNAMDLWQFTPLHEAASKNRVEVCSLLLSHGADPTLVNCHGKSAVDMAPTPELRERLTYEFKGHSLLQAAREADLAKVKKTLALEIINFKQPQSHETALHCAVASLHPKRKQVTELLLRKGANVNEKNKDFMTPLHVAAERAHNDVMEVLHKHGAKMNALDTLGQTALHRAALAGHLQTCRLLLSYGSDPSIISLQGFTAAQMGNEAVQQILSESTPIRTSD

Variants of: B1
Assay: proteomic peptide phage display deep mutational scan (ProP-PD DMS): M13 P8 16-mer library selected against immobilised GST-tagged bait for four days (rounds), NGS of the eluted pools per day and pseudo-replica; bait immobilised on MaxiSorp plates (10 µg), library pre-cleared on GST, 2 h binding at 4 °C, five washes; one round per day, days 1-4; value from days 2 and 3

Variant | screen value
chain 1 L5I | 5.25e-05 average fractional NGS count over selection days 2 and 3 (reads of this peptide / all reads for the bait, averaged over …
chain 1 D4H | 0.000257 average fractional NGS count over selection days 2 and 3 (reads of this peptide / all reads for the bait, averaged over …
chain 1 P11Y | 0.00117 average fractional NGS count over selection days 2 and 3 (reads of this peptide / all reads for the bait, averaged over …
chain 1 R13S | 0.000102 average fractional NGS count over selection days 2 and 3 (reads of this peptide / all reads for the bait, averaged over …
chain 1 R3I | 0.000159 average fractional NGS count over selection days 2 and 3 (reads of this peptide / all reads for the bait, averaged over …
chain 1 S16A | 0.00886 average fractional NGS count over selection days 2 and 3 (reads of this peptide / all reads for the bait, averaged over …
chain 1 R3F | 0.000372 average fractional NGS count over selection days 2 and 3 (reads of this peptide / all reads for the bait, averaged over …
chain 1 D4T | 0.00181 average fractional NGS count over selection days 2 and 3 (reads of this peptide / all reads for the bait, averaged over …
chain 1 P10I | 0.00183 average fractional NGS count over selection days 2 and 3 (reads of this peptide / all reads for the bait, averaged over …
chain 1 L2A | 0.00082 average fractional NGS count over selection days 2 and 3 (reads of this peptide / all reads for the bait, averaged over …
chain 1 P11R | 0.000288 average fractional NGS count over selection days 2 and 3 (reads of this peptide / all reads for the bait, averaged over …
chain 1 P14S | 0.00038 average fractional NGS count over selection days 2 and 3 (reads of this peptide / all reads for the bait, averaged over …
chain 1 P10N | 0.000197 average fractional NGS count over selection days 2 and 3 (reads of this peptide / all reads for the bait, averaged over …
chain 1 D4S | 7.92e-05 average fractional NGS count over selection days 2 and 3 (reads of this peptide / all reads for the bait, averaged over …
chain 1 R13T | 0.000227 average fractional NGS count over selection days 2 and 3 (reads of this peptide / all reads for the bait, averaged over …
chain 1 P10W | 0.00035 average fractional NGS count over selection days 2 and 3 (reads of this peptide / all reads for the bait, averaged over …

Variants of: B2
Assay: as above

Variant | screen value
chain 1 L3T | 0.000337 average fractional NGS count over selection days 2 and 3 (reads of this peptide / all reads for the bait, averaged over …
chain 1 F16T | 0.000194 average fractional NGS count over selection days 2 and 3 (reads of this peptide / all reads for the bait, averaged over …
chain 1 H5Q | 0.00258 average fractional NGS count over selection days 2 and 3 (reads of this peptide / all reads for the bait, averaged over …
chain 1 L6T | 0.000389 average fractional NGS count over selection days 2 and 3 (reads of this peptide / all reads for the bait, averaged over …
chain 1 P10E | 0.00215 average fractional NGS count over selection days 2 and 3 (reads of this peptide / all reads for the bait, averaged over …
chain 1 S9I | 0.00144 average fractional NGS count over selection days 2 and 3 (reads of this peptide / all reads for the bait, averaged over …
chain 1 Q2N | 0.000225 average fractional NGS count over selection days 2 and 3 (reads of this peptide / all reads for the bait, averaged over …
chain 1 H5F | 0.00112 average fractional NGS count over selection days 2 and 3 (reads of this peptide / all reads for the bait, averaged over …
chain 1 P10D | 0.000749 average fractional NGS count over selection days 2 and 3 (reads of this peptide / all reads for the bait, averaged over …
chain 1 S9E | 0.00024 average fractional NGS count over selection days 2 and 3 (reads of this peptide / all reads for the bait, averaged over …
chain 1 Q7G | 0.00109 average fractional NGS count over selection days 2 and 3 (reads of this peptide / all reads for the bait, averaged over …
chain 1 F16V | 0.00271 average fractional NGS count over selection days 2 and 3 (reads of this peptide / all reads for the bait, averaged over …
chain 1 P10I | 0.00249 average fractional NGS count over selection days 2 and 3 (reads of this peptide / all reads for the bait, averaged over …
chain 1 Q7E | 0.000295 average fractional NGS count over selection days 2 and 3 (reads of this peptide / all reads for the bait, averaged over …
chain 1 L3P | 0.000341 average fractional NGS count over selection days 2 and 3 (reads of this peptide / all reads for the bait, averaged over …
chain 1 L3V | 0.000203 average fractional NGS count over selection days 2 and 3 (reads of this peptide / all reads for the bait, averaged over …
chain 1 P10T | 0.00166 average fractional NGS count over selection days 2 and 3 (reads of this peptide / all reads for the bait, averaged over …
chain 1 S15E | 0.000326 average fractional NGS count over selection days 2 and 3 (reads of this peptide / all reads for the bait, averaged over …
chain 1 P11G | 0.0132 average fractional NGS count over selection days 2 and 3 (reads of this peptide / all reads for the bait, averaged over …
chain 1 F16L | 0.00209 average fractional NGS count over selection days 2 and 3 (reads of this peptide / all reads for the bait, averaged over …

Variant | screen value
chain 1 P10Y | 0.000858 average fractional NGS count over selection days 2 and 3 (reads of this peptide / all reads for the bait, averaged over …
chain 1 D12E | 0.00128 average fractional NGS count over selection days 2 and 3 (reads of this peptide / all reads for the bait, averaged over …
chain 1 D12Q | 0.000387 average fractional NGS count over selection days 2 and 3 (reads of this peptide / all reads for the bait, averaged over …
chain 1 P4H | 0.00111 average fractional NGS count over selection days 2 and 3 (reads of this peptide / all reads for the bait, averaged over …
chain 1 P4A | 0.00484 average fractional NGS count over selection days 2 and 3 (reads of this peptide / all reads for the bait, averaged over …
chain 1 F16I | 0.000483 average fractional NGS count over selection days 2 and 3 (reads of this peptide / all reads for the bait, averaged over …
chain 1 F16P | 0.0012 average fractional NGS count over selection days 2 and 3 (reads of this peptide / all reads for the bait, averaged over …
chain 1 L3S | 0.000201 average fractional NGS count over selection days 2 and 3 (reads of this peptide / all reads for the bait, averaged over …
chain 1 L3N | 0.000433 average fractional NGS count over selection days 2 and 3 (reads of this peptide / all reads for the bait, averaged over …
chain 1 S15V | 0.000578 average fractional NGS count over selection days 2 and 3 (reads of this peptide / all reads for the bait, averaged over …
chain 1 L3A | 0.000216 average fractional NGS count over selection days 2 and 3 (reads of this peptide / all reads for the bait, averaged over …
chain 1 L3R | 0.000308 average fractional NGS count over selection days 2 and 3 (reads of this peptide / all reads for the bait, averaged over …
chain 1 S15M | 0.000289 average fractional NGS count over selection days 2 and 3 (reads of this peptide / all reads for the bait, averaged over …
chain 1 Q7W | 0.000561 average fractional NGS count over selection days 2 and 3 (reads of this peptide / all reads for the bait, averaged over …
chain 1 P4D | 0.000447 average fractional NGS count over selection days 2 and 3 (reads of this peptide / all reads for the bait, averaged over …
chain 1 L6Q | 0.000145 average fractional NGS count over selection days 2 and 3 (reads of this peptide / all reads for the bait, averaged over …
chain 1 Q14E | 0.000266 average fractional NGS count over selection days 2 and 3 (reads of this peptide / all reads for the bait, averaged over …
chain 1 S15K | 0.000127 average fractional NGS count over selection days 2 and 3 (reads of this peptide / all reads for the bait, averaged over …
chain 1 F16G | 0.000376 average fractional NGS count over selection days 2 and 3 (reads of this peptide / all reads for the bait, averaged over …
chain 1 L6P | 0.000739 average fractional NGS count over selection days 2 and 3 (reads of this peptide / all reads for the bait, averaged over …

Variant | screen value
chain 1 L3E | 0.00036 average fractional NGS count over selection days 2 and 3 (reads of this peptide / all reads for the bait, averaged over …
chain 1 L3I | 0.000205 average fractional NGS count over selection days 2 and 3 (reads of this peptide / all reads for the bait, averaged over …
chain 1 Q14V | 0.00071 average fractional NGS count over selection days 2 and 3 (reads of this peptide / all reads for the bait, averaged over …
chain 1 P10N | 0.00386 average fractional NGS count over selection days 2 and 3 (reads of this peptide / all reads for the bait, averaged over …
chain 1 Q2K | 0.000141 average fractional NGS count over selection days 2 and 3 (reads of this peptide / all reads for the bait, averaged over …
chain 1 D12I | 0.000718 average fractional NGS count over selection days 2 and 3 (reads of this peptide / all reads for the bait, averaged over …
chain 1 S15I | 0.000286 average fractional NGS count over selection days 2 and 3 (reads of this peptide / all reads for the bait, averaged over …
chain 1 P10W | 0.000201 average fractional NGS count over selection days 2 and 3 (reads of this peptide / all reads for the bait, averaged over …
chain 1 S15N | 0.000592 average fractional NGS count over selection days 2 and 3 (reads of this peptide / all reads for the bait, averaged over …
chain 1 Q14S | 0.0015 average fractional NGS count over selection days 2 and 3 (reads of this peptide / all reads for the bait, averaged over …
chain 1 P4L | 0.000189 average fractional NGS count over selection days 2 and 3 (reads of this peptide / all reads for the bait, averaged over …
chain 1 P10Q | 0.00105 average fractional NGS count over selection days 2 and 3 (reads of this peptide / all reads for the bait, averaged over …
chain 1 P4Q | 0.000351 average fractional NGS count over selection days 2 and 3 (reads of this peptide / all reads for the bait, averaged over …
chain 1 P4I | 0.000387 average fractional NGS count over selection days 2 and 3 (reads of this peptide / all reads for the bait, averaged over …
chain 1 F16N | 0.000118 average fractional NGS count over selection days 2 and 3 (reads of this peptide / all reads for the bait, averaged over …
chain 1 Q14M | 0.00362 average fractional NGS count over selection days 2 and 3 (reads of this peptide / all reads for the bait, averaged over …
chain 1 Q2A | 0.000765 average fractional NGS count over selection days 2 and 3 (reads of this peptide / all reads for the bait, averaged over …
chain 1 H5V | 0.000333 average fractional NGS count over selection days 2 and 3 (reads of this peptide / all reads for the bait, averaged over …
chain 1 Q2P | 0.00147 average fractional NGS count over selection days 2 and 3 (reads of this peptide / all reads for the bait, averaged over …
